In patent US20220306695A1, “COMPSTATIN ANALOGUES AND THEIR MEDICAL USES” (priority 2019, published 2022):
One block for each binder: values may come before it. Starred links: 1 amine or outer side, 2 acyl side, 3 side chain; linkers in the order of their positions; H or OH if unused. Positions of bridges follow the written chain, without caps; N, C: chain ends. Non-standard residues stand in square brackets, D forms with d. Groups on a side chain read outwards from the residue. *: point of attachment. Trp(1-Me) = Cn1cc(C[C@H](N)C(=O)O)c2ccccc21; C18 diacid = O=C(O)CCCCCCCCCCCCCCCCC(=O)*; C16 diacid = O=C(O)CCCCCCCCCCCCCCC(=O)*; γGlu = O=C(O)[C@H](CCC(=O)[*:2])N[*:1]; hCys = N[C@@H](CCS)C(=O)O; AEEA = NCCOCCOCC(=O)O; Sar = CNCC(=O)O

Assays:
Human C3 [1] = biological target: T1, Human C3 (human, UniProt P01024 23-1663); experiment: cell-based or functional assay
Human C3 [2] = biological target: T1, Human C3; experiment: SPR, C3 immobilised
Description: Surface plasmon resonance (SPR) was used to characterize peptides with respect to their binding affinity (Kd) for C3. Human C3 (Complement tech cat #A1 13c) was immobilised on individual flow cells of CM5 sensor chips (GE Healthcare) using standard amine coupling to a density of approximately 3000 resonance units (RU) in a buffer consisting of 10 mM phosphate pH 7.4, 150 mM NaCl, 0.05% Tween20.
For interaction experiments a multi-cycle experiment approach was used and performed using either a Biacore™ T200 or Biacore™ X100 instrument (GE Healthcare) at 25° C. Peptides were injected in increasing concentration series (5-8 different concentrations) for 60-120 s at a flow rate of 30 μL/min in a buffer consisting of 10 mM Tris buffer at pH 7.4, with 150 mM NaCl and 0.05% Tween20. This was followed by a dissociation period for up to 10 min. The C3 surface was regenerated between runs by a 45 s injection of 3 M MgCl₂.
Sensorgrams were double-referenced (reference surface, blanks) prior to analysis of the kinetic profiles by globally fitting data to a 1:1 Langmuir binding model to obtain association and dissociation rates for calculation of the equilibrium dissociation constant Kd. Each peptide was tested at in at least 2 independent experiments.

T1 sequence (P01024 23-1663 limits assumed): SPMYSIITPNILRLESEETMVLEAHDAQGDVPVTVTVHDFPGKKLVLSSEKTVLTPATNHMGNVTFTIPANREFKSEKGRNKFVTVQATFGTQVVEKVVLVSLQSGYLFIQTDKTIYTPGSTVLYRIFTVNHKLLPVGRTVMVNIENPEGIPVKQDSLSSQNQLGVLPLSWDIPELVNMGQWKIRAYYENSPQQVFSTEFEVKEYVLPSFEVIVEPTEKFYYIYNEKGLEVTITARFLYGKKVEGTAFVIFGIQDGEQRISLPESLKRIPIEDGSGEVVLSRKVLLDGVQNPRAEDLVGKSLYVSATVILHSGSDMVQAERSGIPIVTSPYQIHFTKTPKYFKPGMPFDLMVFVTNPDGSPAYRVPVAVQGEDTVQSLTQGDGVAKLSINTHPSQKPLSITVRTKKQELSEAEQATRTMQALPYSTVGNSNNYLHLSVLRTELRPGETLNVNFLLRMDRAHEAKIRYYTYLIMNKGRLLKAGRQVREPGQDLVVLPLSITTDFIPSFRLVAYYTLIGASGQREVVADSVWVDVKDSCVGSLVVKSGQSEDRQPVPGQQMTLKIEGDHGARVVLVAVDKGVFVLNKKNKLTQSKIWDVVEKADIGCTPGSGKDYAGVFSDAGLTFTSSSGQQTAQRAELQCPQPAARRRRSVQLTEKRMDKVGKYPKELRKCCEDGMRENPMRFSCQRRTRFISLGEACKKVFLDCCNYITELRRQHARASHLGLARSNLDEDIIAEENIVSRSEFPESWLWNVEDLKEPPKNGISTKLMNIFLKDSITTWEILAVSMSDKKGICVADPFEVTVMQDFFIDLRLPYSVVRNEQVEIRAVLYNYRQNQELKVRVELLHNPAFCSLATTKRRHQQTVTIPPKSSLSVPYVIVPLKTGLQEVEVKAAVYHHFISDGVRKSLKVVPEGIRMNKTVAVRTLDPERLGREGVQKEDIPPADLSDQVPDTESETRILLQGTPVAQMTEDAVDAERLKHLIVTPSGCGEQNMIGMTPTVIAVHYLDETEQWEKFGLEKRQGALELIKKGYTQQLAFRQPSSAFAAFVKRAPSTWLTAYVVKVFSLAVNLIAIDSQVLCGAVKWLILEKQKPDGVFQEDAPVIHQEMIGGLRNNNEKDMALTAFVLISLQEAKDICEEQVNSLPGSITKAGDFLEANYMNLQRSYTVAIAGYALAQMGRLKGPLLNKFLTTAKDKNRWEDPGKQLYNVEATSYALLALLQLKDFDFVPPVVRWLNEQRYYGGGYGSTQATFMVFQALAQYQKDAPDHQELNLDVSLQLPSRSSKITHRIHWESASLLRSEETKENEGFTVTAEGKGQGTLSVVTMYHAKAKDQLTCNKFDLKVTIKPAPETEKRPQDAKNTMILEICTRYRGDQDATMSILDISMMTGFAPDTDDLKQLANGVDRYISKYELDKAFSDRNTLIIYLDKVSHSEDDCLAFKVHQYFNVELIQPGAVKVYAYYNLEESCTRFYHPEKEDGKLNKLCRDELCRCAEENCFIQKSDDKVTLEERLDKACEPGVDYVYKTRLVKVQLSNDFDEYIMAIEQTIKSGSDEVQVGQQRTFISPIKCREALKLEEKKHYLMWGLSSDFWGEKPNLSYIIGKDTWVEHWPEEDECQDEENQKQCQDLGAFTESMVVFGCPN

B2: Compound 119 (peptide)
peptide: Ac-SEFCI[Trp(1-Me)]QDWGEHRC[Sar]EGAK([AEEA-γGlu-AEEA-Gly-γGlu-C18 diacid])-NH2
modifications: disulfide 4-14
SMILES: CC[C@H](C)[C@@H]1NC(=O)[C@@H](NC(=O)[C@H](Cc2ccccc2)NC(=O)[C@H](CCC(=O)O)NC(=O)[C@H](CO)NC(C)=O)CSSC[C@@H](C(=O)N(C)CC(=O)N[C@@H](CCC(=O)O)C(=O)NCC(=O)N[C@@H](C)C(=O)N[C@@H](CCCCNC(=O)COCCOCCNC(=O)CC[C@H](NC(=O)COCCOCCNC(=O)CNC(=O)CC[C@H](NC(=O)CCCCCCCCCCCCCCCCC(=O)O)C(=O)O)C(=O)O)C(N)=O)NC(=O)[C@H](CCCNC(=N)N)NC(=O)[C@H](Cc2c[nH]cn2)NC(=O)[C@H](CCC(=O)O)NC(=O)CNC(=O)[C@H](Cc2c[nH]c3ccccc23)NC(=O)[C@H](CC(=O)O)NC(=O)[C@H](CCC(N)=O)NC(=O)[C@H](Cc2cn(C)c3ccccc23)NC1=O
IC50[nM], inhibition of hemolysis (Human C3 [1]): < 100 nM
Kd (Human C3 [2]): 9.8 nM

B3: Compound 154 (peptide)
peptide: Ac-SEFAI[Trp(1-Me)]QDWGEHR[hCys][Sar]EGAK([AEEA-γGlu-AEEA-Gly-γGlu-C18 diacid])-NH2
modifications: thioether 4-14; not fully specified
IC50[nM], inhibition of hemolysis (Human C3 [1]): < 100 nM
Kd (Human C3 [2]): 2.4 nM

B7: Compound 117 (peptide)
peptide: Ac-SEYCI[Trp(1-Me)]QDWGEHRC[Sar]EGE[AEEA][AEEA]K([γGlu-Gly-γGlu-C18 diacid])-NH2
modifications: disulfide 4-14
IC50[nM], inhibition of hemolysis (Human C3 [1]): < 250 nM
Kd (Human C3 [2]): 24 nM

B10: Compound 146 (peptide)
peptide: SEFAIWQDWGEHRCGEGEXXK
modifications: not fully specified; N-acetyl; C-terminal amide; delta-cystathionine (Ctt2) thioether bridge A4-hCys14 (hCys written C); W6 is 1-Me-Trp; G15 is Sar; X19 and X20 are Peg3; K21 side chain bears [17-carboxy-heptadecanoyl][γGlu]G[γGlu]
IC50[nM], inhibition of hemolysis (Human C3 [1]): < 100 nM
Kd (Human C3 [2]): 0.43 nM

B12: Compound 153 (peptide)
peptide: SEFAIWQEWGEHRCGEGEXXK
modifications: not fully specified; N-acetyl; C-terminal amide; delta-cystathionine (Ctt2) thioether bridge A4-hCys14 (hCys written C); W6 is 1-Me-Trp; G15 is Sar; X19 and X20 are Peg3; K21 side chain bears [17-carboxy-heptadecanoyl][γGlu]G[γGlu]
IC50[nM], inhibition of hemolysis (Human C3 [1]): < 100 nM
Kd (Human C3 [2]): 11.1 nM

B13: Compound 167 (peptide)
peptide: Ac-SEF[hCys]I[Trp(1-Me)]QEWGEHRA[Sar]EGE[AEEA][AEEA]K([γGlu-Gly-γGlu-C18 diacid])-NH2
modifications: thioether 4-14
IC50[nM], inhibition of hemolysis (Human C3 [1]): < 500 nM
Kd (Human C3 [2]): 57.4 nM

The next lines start with results.

Kd (Human C3 [2]): 8.5 nM
B1: Compound 127 (peptide)
peptide: Ac-SEFCI[Trp(1-Me)]QDWGEHRC[Sar]EGE[AEEA][AEEA]K([γGlu-Gly-γGlu-C16 diacid])-NH2
modifications: disulfide 4-14
IC50[nM], inhibition of hemolysis (Human C3 [1]): < 100 nM

Kd (Human C3 [2]): 63 nM
B4: Compound 122 (peptide)
peptide: Ac-SEYCI[Trp(1-Me)]QEWGEHRC[Sar]EGAK([AEEA-γGlu-AEEA-Gly-γGlu-C18 diacid])-NH2
modifications: disulfide 4-14
SMILES: CC[C@H](C)[C@@H]1NC(=O)[C@@H](NC(=O)[C@H](Cc2ccc(O)cc2)NC(=O)[C@H](CCC(=O)O)NC(=O)[C@H](CO)NC(C)=O)CSSC[C@@H](C(=O)N(C)CC(=O)N[C@@H](CCC(=O)O)C(=O)NCC(=O)N[C@@H](C)C(=O)N[C@@H](CCCCNC(=O)COCCOCCNC(=O)CC[C@H](NC(=O)COCCOCCNC(=O)CNC(=O)CC[C@H](NC(=O)CCCCCCCCCCCCCCCCC(=O)O)C(=O)O)C(=O)O)C(N)=O)NC(=O)[C@H](CCCNC(=N)N)NC(=O)[C@H](Cc2c[nH]cn2)NC(=O)[C@H](CCC(=O)O)NC(=O)CNC(=O)[C@H](Cc2c[nH]c3ccccc23)NC(=O)[C@H](CCC(=O)O)NC(=O)[C@H](CCC(N)=O)NC(=O)[C@H](Cc2cn(C)c3ccccc23)NC1=O
IC50[nM], inhibition of hemolysis (Human C3 [1]): < 500 nM

Kd (Human C3 [2]): 3 nM
B5: Compound 54 (peptide)
peptide: Ac-EGSAYCI[Trp(1-Me)]QDWGEHRC[Sar]E-NH2
modifications: disulfide 6-16
SMILES: CC[C@H](C)[C@@H]1NC(=O)[C@@H](NC(=O)[C@H](Cc2ccc(O)cc2)NC(=O)[C@H](C)NC(=O)[C@H](CO)NC(=O)CNC(=O)[C@H](CCC(=O)O)NC(C)=O)CSSC[C@@H](C(=O)N(C)CC(=O)N[C@@H](CCC(=O)O)C(N)=O)NC(=O)[C@H](CCCNC(=N)N)NC(=O)[C@H](Cc2c[nH]cn2)NC(=O)[C@H](CCC(=O)O)NC(=O)CNC(=O)[C@H](Cc2c[nH]c3ccccc23)NC(=O)[C@H](CC(=O)O)NC(=O)[C@H](CCC(N)=O)NC(=O)[C@H](Cc2cn(C)c3ccccc23)NC1=O
IC50[nM], inhibition of hemolysis (Human C3 [1]): < 100 nM

Kd (Human C3 [2]): 6.1 nM
B6: Compound 107 (peptide)
peptide: {C16 diacid}-EGSEYCI[Trp(1-Me)]QDWGEHRC[Sar]E-NH2
modifications: disulfide 6-16
SMILES: CC[C@H](C)[C@@H]1NC(=O)[C@@H](NC(=O)[C@H](Cc2ccc(O)cc2)NC(=O)[C@H](CCC(=O)O)NC(=O)[C@H](CO)NC(=O)CNC(=O)[C@H](CCC(=O)O)NC(=O)CCCCCCCCCCCCCCC(=O)O)CSSC[C@@H](C(=O)N(C)CC(=O)N[C@@H](CCC(=O)O)C(N)=O)NC(=O)[C@H](CCCNC(=N)N)NC(=O)[C@H](Cc2c[nH]cn2)NC(=O)[C@H](CCC(=O)O)NC(=O)CNC(=O)[C@H](Cc2c[nH]c3ccccc23)NC(=O)[C@H](CC(=O)O)NC(=O)[C@H](CCC(N)=O)NC(=O)[C@H](Cc2cn(C)c3ccccc23)NC1=O
IC50[nM], inhibition of hemolysis (Human C3 [1]): < 100 nM

Kd (Human C3 [2]): 5.2 nM
B8: Compound 126 (peptide)
peptide: Ac-SEFCI[Trp(1-Me)]QDWGEHRCTEGE[AEEA][AEEA]K([γGlu-Gly-γGlu-C18 diacid])-NH2
modifications: disulfide 4-14
IC50[nM], inhibition of hemolysis (Human C3 [1]): < 100 nM

Kd (Human C3 [2]): 31 nM
B9: Compound 124 (peptide)
peptide: Ac-SEFCI[Trp(1-Me)]QEWGEHRC[Sar]EGE[AEEA][AEEA]K([γGlu-Gly-γGlu-C18 diacid])-NH2
modifications: disulfide 4-14
SMILES: CC[C@H](C)[C@@H]1NC(=O)[C@@H](NC(=O)[C@H](Cc2ccccc2)NC(=O)[C@H](CCC(=O)O)NC(=O)[C@H](CO)NC(C)=O)CSSC[C@@H](C(=O)N(C)CC(=O)N[C@@H](CCC(=O)O)C(=O)NCC(=O)N[C@@H](CCC(=O)O)C(=O)NCCOCCOCC(=O)NCCOCCOCC(=O)N[C@@H](CCCCNC(=O)CC[C@H](NC(=O)CNC(=O)CC[C@H](NC(=O)CCCCCCCCCCCCCCCCC(=O)O)C(=O)O)C(=O)O)C(N)=O)NC(=O)[C@H](CCCNC(=N)N)NC(=O)[C@H](Cc2c[nH]cn2)NC(=O)[C@H](CCC(=O)O)NC(=O)CNC(=O)[C@H](Cc2c[nH]c3ccccc23)NC(=O)[C@H](CCC(=O)O)NC(=O)[C@H](CCC(N)=O)NC(=O)[C@H](Cc2cn(C)c3ccccc23)NC1=O
IC50[nM], inhibition of hemolysis (Human C3 [1]): < 100 nM

Kd (Human C3 [2]): 0.5 nM
B11: Compound 149 (peptide)
peptide: GEFAIWQDWGEHRCGEAEXXK
modifications: not fully specified; N-acetyl; C-terminal amide; delta-cystathionine (Ctt2) thioether bridge A4-hCys14 (hCys written C); W6 is 1-Me-Trp; G10 is Sar; G15 is Sar; X19 and X20 are Peg3; K21 side chain bears [17-carboxy-heptadecanoyl][γGlu]G[γGlu]
IC50[nM], inhibition of hemolysis (Human C3 [1]): < 100 nM

Kd (Human C3 [2]): 71 nM
B14: Compound 125 (peptide)
peptide: Ac-SEYCI[Trp(1-Me)]QEWGEHRC[Sar]EGE[AEEA][AEEA]K([γGlu-Gly-γGlu-C18 diacid])-NH2
modifications: disulfide 4-14
SMILES: CC[C@H](C)[C@@H]1NC(=O)[C@@H](NC(=O)[C@H](Cc2ccc(O)cc2)NC(=O)[C@H](CCC(=O)O)NC(=O)[C@H](CO)NC(C)=O)CSSC[C@@H](C(=O)N(C)CC(=O)N[C@@H](CCC(=O)O)C(=O)NCC(=O)N[C@@H](CCC(=O)O)C(=O)NCCOCCOCC(=O)NCCOCCOCC(=O)N[C@@H](CCCCNC(=O)CC[C@H](NC(=O)CNC(=O)CC[C@H](NC(=O)CCCCCCCCCCCCCCCCC(=O)O)C(=O)O)C(=O)O)C(N)=O)NC(=O)[C@H](CCCNC(=N)N)NC(=O)[C@H](Cc2c[nH]cn2)NC(=O)[C@H](CCC(=O)O)NC(=O)CNC(=O)[C@H](Cc2c[nH]c3ccccc23)NC(=O)[C@H](CCC(=O)O)NC(=O)[C@H](CCC(N)=O)NC(=O)[C@H](Cc2cn(C)c3ccccc23)NC1=O
IC50[nM], inhibition of hemolysis (Human C3 [1]): < 500 nM

Kd (Human C3 [2]): 8.2 nM
B15: Compound 111 (peptide)
peptide: Ac-EGSAYCI[Trp(1-Me)]QDWGEHRC[Sar]EK[γGlu]K([AEEA-AEEA-γGlu-C18 diacid])-NH2
modifications: disulfide 6-16
SMILES: CC[C@H](C)[C@@H]1NC(=O)[C@@H](NC(=O)[C@H](Cc2ccc(O)cc2)NC(=O)[C@H](C)NC(=O)[C@H](CO)NC(=O)CNC(=O)[C@H](CCC(=O)O)NC(C)=O)CSSC[C@@H](C(=O)N(C)CC(=O)N[C@@H](CCC(=O)O)C(=O)N[C@@H](CCCCN)C(=O)N[C@@H](CCC(=O)N[C@@H](CCCCNC(=O)COCCOCCNC(=O)COCCOCCNC(=O)CC[C@H](NC(=O)CCCCCCCCCCCCCCCCC(=O)O)C(=O)O)C(N)=O)C(=O)O)NC(=O)[C@H](CCCNC(=N)N)NC(=O)[C@H](Cc2c[nH]cn2)NC(=O)[C@H](CCC(=O)O)NC(=O)CNC(=O)[C@H](Cc2c[nH]c3ccccc23)NC(=O)[C@H](CC(=O)O)NC(=O)[C@H](CCC(N)=O)NC(=O)[C@H](Cc2cn(C)c3ccccc23)NC1=O
IC50[nM], inhibition of hemolysis (Human C3 [1]): < 100 nM
